Drawing on patent US20170319675A1, this text covers Relative Binding Score (% compared to the positive control) for two molecules.

Some targets named below: HLA-DR4 (human); HLA-DR1 (human); HLA-DR5 (human); HLA-DR2 (human); HLA-DR7 (human).
Holding throughout (test): REVEAL MHC-peptide binding assay

TLGEFLKLDRERAKN (peptide, from a related filing) [BIR-002]: the Relative Binding Score (% compared to the positive control) with HLA-DR4 (human) was 6.12; in the assay with HLA-DR1 (human), 40.1; with HLA-DR5 (human) it was 104; with HLA-DR2 (human) it was 0.05; with HLA-DR7 (human), 0.27.

TFSYVDPVITSISPKYG (peptide, from a related filing) [MET-005]: the Relative Binding Score (% compared to the positive control) with HLA-DR4 (human) came out at 5.89; with HLA-DR1 (human) it was 0.87; in the assay with HLA-DR5 (human), 0.12; with HLA-DR2 (human) it was 0.28; with HLA-DR7 (human) it was 3.69.
